Results published in publication PMC6981147.

Columns and labels:
[1] = target: Rpn13 proteasome (reconstituted proteasome harboring the rpn1-ARR and rpn10-UIM mutations) (S. cerevisiae) (UniProt P38764)
[2] = target: Rpn1 proteasome (reconstituted proteasome harboring the rpn10-UIM and rpn13-pru mutations) (S. cerevisiae) (UniProt P38764)
[3] = target: Rpn13 proteasome (rpn1-ARR, rpn10-uim) (S. cerevisiae) (UniProt P38764)
[4] = target: TM (triple mutant) proteasome (rpn1-ARR, rpn10-uim, rpn13-pru) (S. cerevisiae) (UniProt P38764)
[5] = target: Rpn10/13 proteasome (rpn1-ARR) (S. cerevisiae) (UniProt P38764)
[6] = target: Rpn10 proteasome (rpn1-ARR, rpn13-pru) (S. cerevisiae) (UniProt P38764)
[7] = target: wild-type proteasome (reconstituted from regulatory particle and core particle) (S. cerevisiae) (UniProt P38764)

Substance | Supplementary Table 4: KM of degradation (Michaelis-Menten analysis of initial rates of loss of GFP fluorescence, 25 nM proteasome, 1 mM ATP, 30 °C) [3] [µM] | Supplementary Table 4: KM of degradation (Michaelis-Menten analysis of initial rates of loss of GFP fluorescence, 25 nM proteasome, 1 mM ATP, 30 °C) [4] [µM] | Supplementary Table 4: KM of degradation (Michaelis-Menten analysis of initial rates of loss of GFP fluorescence, 25 nM proteasome, 1 mM ATP, 30 °C) [7] [µM] | further results
UBL-GFP-35 (from UniProt P32628 1-80; P00175 1-35) |  |  |  | initial rate of degradation (GFP fluorescence), single turnover, 5 nM substrate, 25 nM proteasome, 1 mM ATP, 30 °C; against Ub5(K48)-GFP-35 or Ub9(K48)-GFP-35 on the same proteasome [1]: > 4 fold
UBL-GFP-95 (from UniProt P32628 1-80) |  |  |  | initial rate of degradation (GFP fluorescence), single turnover, 5 nM substrate, 25 nM proteasome, 1 mM ATP, 30 °C; against Ub5(K48)-GFP-95 on the same proteasome [2]: 4 fold
Ub5(K48)-GFP-35: base protein Ub-GFP-35 with a K48-linked chain of four ubiquitins attached to its ubiquitin domain (from UniProt P0CG63 1-76; P0CG63 1-76) | 5.72 | 5.28 |  | Supplementary Table 4: KM of degradation (Michaelis-Menten analysis of initial rates of loss of GFP fluorescence, 25 nM proteasome, 1 mM ATP, 30 °C) [5]: 0.058 µM
Ub5(K63)-GFP-35: base protein Ub-GFP-35 with a K63-linked chain of four ubiquitins attached to its ubiquitin domain (from UniProt P0CG63 1-76; P0CG63 1-76) | 0.816 | 2.06 | 0.333 | Supplementary Table 4: KM of degradation (Michaelis-Menten analysis of initial rates of loss of GFP fluorescence, 25 nM proteasome, 1 mM ATP, 30 °C) [6]: 0.428 µM
Ub9(K48)-GFP-35: base protein Ub-GFP-35 with a K48-linked chain of eight ubiquitins attached to its ubiquitin domain (from UniProt P0CG63 1-76; P0CG63 1-76) | 1.1 | 1.68 | 0.05 | 
